The values below come from the supplement of paper PMC5998384.

The subject of data set [1] is HeLa Kyoto. The data set is described as follows: solubility in G1/S (NP-40 vs SDS abundance) (log2 ratio); higher = more soluble. Particulars: cell cycle stage: G1/S.
Data set [2] deals with HeLa Kyoto. The data set is described as follows: melting temperature (median over replicates), in situ; higher = more thermally stable.
Data set [3] deals with HeLa Kyoto. The data set can be described thus: solubility change mitosis vs G1/S (difference of NP-40 vs SDS log2 ratios) (log2 ratio difference); higher = more soluble in mitosis.
Data set [4] deals with HeLa Kyoto. The data set can be described thus: thermal stability score vs G1/S (z-score of summed log2 fold changes over temperatures); higher = more thermally stable than in G1/S.
The mark [5] stands for this setting: cell cycle stage: early G1 (4.5 h after nocodazole release).
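Wherever melting temperature (median over replicates), in situ is given: HeLa Kyoto cells synchronized by double thymidine or nocodazole block, proteins quantified by TMT10plex mass spectrometry, three independent biological replicates.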
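Wherever solubility change mitosis vs G1/S (difference of NP-40 vs SDS log2 ratios) is given: synchronized HeLa Kyoto cells (double thymidine block for G1/S, nocodazole release for mitosis), protein amounts in NP-40 versus SDS lysates quantified by mass spectrometry, three biological replicates.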
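Wherever solubility in G1/S (NP-40 vs SDS abundance) is given: HeLa Kyoto cells arrested at G1/S by double thymidine block, proteins quantified by TMT10plex mass spectrometry in mild NP-40 versus SDS extracts, three biological replicates.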
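Wherever thermal stability score vs G1/S (z-score of summed log2 fold changes over temperatures) is given: synchronized HeLa Kyoto cells, proteins quantified by TMT10plex mass spectrometry, three biological replicates, mitosis taken 0.5 h after nocodazole release, G1/S directly after double thymidine block.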

As for “MNTADQARVGPADDGPAPSGEEEGEGGGEAGGKEPAADAAPGPSAAFRLMVTRREPAVKLQYAVSGLEPLAWSEDHRVSVSTARSIAVLELICDVHNPGQDLVIHRTSVPAPLNSCLLKVGSKTEVAECKEKFAASKDPTVSQTFMLDRVFNPEGKALPPMRGFKYTSWSPMGCDANGRCLLAALTMDNRLTIQANLNRLQWVQLVDLTEIYGERLYETSYRLSKNEAPEGNLGDFAEFQRRHSMQTPVRMEWSGICTTQQVKHNNECRDVGSVLLAVLFENGNIAVWQFQLPFVGKESISSCNTIESGITSPSVLFWWEYEHNNRKMSGLIVGSAFGPIKILPVNLKAVKGYFTLRQPVILWKEMDQLPVHSIKCVPLYHPYQKCSCSLVVAARGSYVFWCLLLISKAGLNVHNSHVTGLHSLPIVSMTADKQNGTVYTCSSDGKVRQLIPIFTDVALKFEHQLIKLSDVFGSVRTHGIAVSPCGAYLAIITTEGMINGLHPVNKNYQVQFVTLKTFEEAAAQLLESSVQNLFKQVDLIDLVRWKILKDKHIPQFLQEALEKKIESSGVTYFWRFKLFLLRILYQSMQKTPSEALWKPTHEDSKILLVDSPGMGNADDEQQEEGTSSKQVVKQGLQERSKEGDVEEPTDDSLPTTGDAGGREPMEEKLLEIQGKIEAVEMHLTREHMKRVLGEVYLHTWITENTSIPTRGLCNFLMSDEEYDDRTARVLIGHISKKMNKQTFPEHCSLCKEILPFTDRKQAVCSNGHIWLRCFLTYQSCQSLIYRRCLLHDSIARHPAPEDPDWIKRLLQSPCPFCDSPVF [GTF3C4]”, the “solubility in G1/S (log2)” value in the data set on HeLa Kyoto [1] is -0.0178. The melting temperature came out at 49.4 °C in the data set on HeLa Kyoto [2] (cell cycle stage: G1/S) and 49.9 °C in the data set on HeLa Kyoto [2] (cell cycle stage: mitosis). The “solubility change mitosis (log2)” value in the data set on HeLa Kyoto [3] was -0.0904. Also, the thermal stability score with HeLa Kyoto [4] (setting [5]) was 1.42; with HeLa Kyoto [4] (cell cycle stage: mitosis), 3.08.

Turning to “MPAESGKRFKPSKYVPVSAAAIFLVGATTLFFAFTCPGLSLYVSPAVPIYNAIMFLFVLANFSMATFMDPGIFPRAEEDEDKEDDFRAPLYKTVEIKGIQVRMKWCATCRFYRPPRCSHCSVCDNCVEEFDHHCPWVNNCIGRRNYRYFFLFLLSLTAHIMGVFGFGLLYVLYHIEELSGVRTAVTMAVMCVAGLFFIPVAGLTGFHVVLVARGRTTNEQVTGKFRGGVNPFTNGCCNNVSRVLCSSPAPRYLGRPKKEKTIVIRPPFLRPEVSDGQITVKIMDNGIQGELRRTKSKGSLEITESQSADAEPPPPPKPDLSRYTGLRTHLGLATNEDSSLLAKDSPPTPTMYKYRPGYSSSSTSAAMPHSSSAKLSRGDSLKEPTSIAESSRHPSYRSEPSLEPESFRSPTFGKSFHFDPLSSGSRSSSLKSAQGTGFELGQLQSIRSEGTTSTSYKSLANQTRNGSLSYDSLLTPSDSPDFESVQAGPEPDPPLGYTSPFLSARLAQQREAERHPRLVPTGPTHREPSPVRYDNLSRHIVASLQEREKLLRQSPPLPGREEEPGLGDSGIQSTPGSGHAPRTSSSSDDSKRSPLGKTPLGRPAVPRFGKPDGLRGRGVGSPEPGPTAPYLGRSMSYSSQKAQPGVSETEEVALQPLLTPKDEVQLKTTYSKSNGQPKSLGSASPGPGQPPLSSPTRGGVKKVSGVGGTTYEISV [ZDHHC5]”, the “solubility in G1/S (log2)” value with HeLa Kyoto [1] is -0.172. Besides, the melting temperature amounted to 59.1 °C in the data set with HeLa Kyoto [2] (cell cycle stage: G1/S) and 62.7 °C in the data set with HeLa Kyoto [2] (cell cycle stage: mitosis). Further, in the data set with HeLa Kyoto [3], the “solubility change mitosis (log2)” value amounted to 0.124. In addition, the thermal stability score with HeLa Kyoto [4] (setting [5]) is -2.84; in the data set with HeLa Kyoto [4] (cell cycle stage: mitosis), 1.5.

For the sequence “MPAGPVQAVPPPPPVPTEPKQPTEEEASSKEDSAPSKPVVGIIYPPPEVRNIVDKTASFVARNGPEFEARIRQNEINNPKFNFLNPNDPYHAYYRHKVSEFKEGKAQEPSAAIPKVMQQQQQTTQQQLPQKVQAQVIQETIVPKEPPPEFEFIADPPSISAFDLDVVKLTAQFVARNGRQFLTQLMQKEQRNYQFDFLRPQHSLFNYFTKLVEQYTKILIPPKGLFSKLKKEAENPREVLDQVCYRVEWAKFQERERKKEEEEKEKERVAYAQIDWHDFVVVETVDFQPNEQGNFPPPTTPEELGARILIQERYEKFGESEEVEMEVESDEEDDKQEKAEEPPSQLDQDTQVQDMDEGSDDEEEGQKVPPPPETPMPPPLPPTPDQVIVRKDYDPKASKPLPPAPAPDEYLVSPITGEKIPASKMQEHMRIGLLDPRWLEQRDRSIREKQSDDEVYAPGLDIESSLKQLAERRTDIFGVEETAIGKKIGEEEIQKPEEKVTWDGHSGSMARTQQAAQANITLQEQIEAIHKAKGLVPEDDTKEKIGPSKPNEIPQQPPPPSSATNIPSSAPPITSVPRPPTMPPPVRTTVVSAVPVMPRPPMASVVRLPPGSVIAPMPPIIHAPRINVVPMPPSAPPIMAPRPPPMIVPTAFVPAPPVAPVPAPAPMPPVHPPPPMEDEPTSKKLKTEDSLMPEEEFLRRNKGPVSIKVQVPNMQDKTEWKLNGQVLVFTLPLTDQVSVIKVKIHEATGMPAGKQKLQYEGIFIKDSNSLAYYNMANGAVIHLALKERGGRKK [SF3A1]”, in the data set on HeLa Kyoto [1], the “solubility in G1/S (log2)” value is -0.0723. The figures for the melting temperature in the data set with HeLa Kyoto [2] (cell cycle stage: G1/S) and with HeLa Kyoto [2] (cell cycle stage: mitosis) were 49.8 °C and 50.2 °C, respectively. Moreover, in the data set on HeLa Kyoto [3], the “solubility change mitosis (log2)” value was 0.18. The thermal stability score in the data set on HeLa Kyoto [4] (setting [5]) is -0.95; in the data set with HeLa Kyoto [4] (cell cycle stage: mitosis), 1.92.

With “MPALPLDQLQITHKDPKTGKLRTSPALHPEQKADRYFVLYKPPPKDNIPALVEEYLERATFVANDLDWLLALPHDKFWCQVIFDETLQKCLDSYLRYVPRKFDEGVASAPEVVDMQKRLHRSVFLTFLRMSTHKESKDHFISPSAFGEILYNNFLFDIPKILDLCVLFGKGNSPLLQKMIGNIFTQQPSYYSDLDETLPTILQVFSNILQHCGLQGDGANTTPQKLEERGRLTPSDMPLLELKDIVLYLCDTCTTLWAFLDIFPLACQTFQKHDFCYRLASFYEAAIPEMESAIKKRRLEDSKLLGDLWQRLSHSRKKLMEIFHIILNQICLLPILESSCDNIQGFIEEFLQIFSSLLQEKRFLRDYDALFPVAEDISLLQQASSVLDETRTAYILQAVESAWEGVDRRKATDAKDPSVIEEPNGEPNGVTVTAEAVSQASSHPENSEEEECMGAAAAVGPAMCGVELDSLISQVKDLLPDLGEGFILACLEYYHYDPEQVINNILEERLAPTLSQLDRNLDREMKPDPTPLLTSRHNVFQNDEFDVFSRDSVDLSRVHKGKSTRKEENTRSLLNDKRAVAAQRQRYEQYSVVVEEVPLQPGESLPYHSVYYEDEYDDTYDGNQVGANDADSDDELISRRPFTIPQVLRTKVPREGQEEDDDDEEDDADEEAPKPDHFVQDPAVLREKAEARRMAFLAKKGYRHDSSTAVAGSPRGHGQSRETTQERRKKEANKATRANHNRRTMADRKRSKGMIPS [ASCC2]”, in the data set with HeLa Kyoto [1], the “solubility in G1/S (log2)” value is -0.248. Moreover, the values for the melting temperature in the data set with HeLa Kyoto [2] (cell cycle stage: G1/S) and with HeLa Kyoto [2] (cell cycle stage: mitosis) were 52.1 °C and 49.5 °C, respectively. In addition, in the data set with HeLa Kyoto [3], the “solubility change mitosis (log2)” value was found to be 0.0692. Further, the thermal stability score stood at 0.236 with HeLa Kyoto [4] (setting [5]) and 1.02 in the data set on HeLa Kyoto [4] (cell cycle stage: mitosis).
